Results published in patent publication US20130267686A1 (HOFFMAN LA ROCHE, published 2013).
Substitutions are numbered along the chain they refer to.

B1: Her3_MetSS_KHSS_FS1 (protease cleavage during expression) (bispecific antibody)
heavy 1: not shown
heavy 2: not shown
chain: ALGGGGSGGGGSDIQMTQSPSSLSASVGDRVTITCKSSQSLLYTSSQKNYLAWYQQKPGKAPKLLIYWASTRESGVPSRFSGSGSGTDFTLTISSLQPEDFATYYCQQYYAYPWTFGCGTKVEIKR
light: DIQMTQTTSSLSASLGDRVTISCRARQDISNYLNWYQRKPDGTVKLLIYYTSRLHSGVPSRFSGSGSGTDYSLTISNLEQEDIATYFCQQGNTFPWTFGGGTKLEIKRTVAAPSVFIFPPSDEQLKSGTASVVCLLNNFYPREAKVQWKVDNALQSGNSQESVTEQDSKDSTYSLSSTLTLSKADYEKHKVYACEVTHQGLSSPVTKSFNRGEC
notes: Trivalent Her3-cMet bispecific: full length anti-Her3 IgG with knobs-into-holes, cMet dsFv (VHCys44/VLCys100) at the C-termini; Arg/Lys residues before the cleavage site were removed
B2: Her3_MetSS_KHSS_PreSci_digested (after purification and protease cleavage) (bispecific antibody)
heavy 1: not shown
heavy 2: not shown
chain: GPSGGGGSGGGGSDIQMTQSPSSLSASVGDRVTITCKSSQSLLYTSSQKNYLAWYQQKPGKAPKLLIYWASTRESGVPSRFSGSGSGTDFTLTISSLQPEDFATYYCQQYYAYPWTFGCGTKVEIKR
light: B1 light
notes: the VL stays attached through the dsFv disulfide
B3: Her3_MetSS_KHSS_PreSci (purified intermediate) (bispecific antibody, human IgG1, kappa)
heavy 1: not shown
heavy 2: not shown
light: B1 light
notes: also called restricted dsFv module; double-tethered dsFv
B4: Her3_MetSS_KHSS_FS2 (protease cleavage during expression) (bispecific antibody)
heavy 1: not shown
heavy 2: not shown
chain: B1 chain with A1S
light: B1 light
notes: As m1 but with furin site variant 2

Legend:
Assay in all cases: SPR (Biacore)
cMet [1] = target: T1, cMet (UniProt P08581 25-932, limits assumed)
T1 construct: Antigen as used in Biacore
T1 sequence (P08581 25-932 limits assumed): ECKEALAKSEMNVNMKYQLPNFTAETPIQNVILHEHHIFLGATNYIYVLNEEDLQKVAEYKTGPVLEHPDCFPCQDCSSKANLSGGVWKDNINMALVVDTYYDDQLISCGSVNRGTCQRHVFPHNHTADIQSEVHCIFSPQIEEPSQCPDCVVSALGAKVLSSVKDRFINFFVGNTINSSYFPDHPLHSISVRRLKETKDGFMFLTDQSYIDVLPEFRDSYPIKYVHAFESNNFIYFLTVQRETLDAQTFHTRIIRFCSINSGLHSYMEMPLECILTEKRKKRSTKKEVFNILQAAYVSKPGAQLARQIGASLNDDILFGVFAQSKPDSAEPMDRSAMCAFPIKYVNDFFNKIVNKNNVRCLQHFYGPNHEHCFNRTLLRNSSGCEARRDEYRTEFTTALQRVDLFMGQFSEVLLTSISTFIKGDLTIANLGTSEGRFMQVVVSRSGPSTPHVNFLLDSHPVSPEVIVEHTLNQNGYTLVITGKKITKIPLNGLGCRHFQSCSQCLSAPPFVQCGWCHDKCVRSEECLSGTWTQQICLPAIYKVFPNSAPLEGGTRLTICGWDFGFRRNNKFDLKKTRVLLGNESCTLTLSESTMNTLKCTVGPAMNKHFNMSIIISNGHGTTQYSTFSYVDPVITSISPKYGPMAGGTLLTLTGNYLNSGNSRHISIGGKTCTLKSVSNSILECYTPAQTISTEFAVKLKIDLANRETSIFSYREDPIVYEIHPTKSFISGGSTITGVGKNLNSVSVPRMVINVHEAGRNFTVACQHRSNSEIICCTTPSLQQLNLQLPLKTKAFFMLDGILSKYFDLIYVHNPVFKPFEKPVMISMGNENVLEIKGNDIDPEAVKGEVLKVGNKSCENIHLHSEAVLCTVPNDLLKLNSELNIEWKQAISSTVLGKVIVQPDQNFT

HER3 = target: T2, HER3 (UniProt P21860 20-643, limits assumed)
T2 construct: Antigen as used in Biacore; also called ErbB3

cMet [2] = target: T1, cMet; remark: listed apart in the source

| Binder | Kd (cMet [1]) [nM] | koff (cMet [1]) [s⁻¹] | kon (cMet [1]) [M⁻¹ s⁻¹] | Kd (HER3) [nM] | koff (HER3) [s⁻¹] | kon (HER3) [M⁻¹ s⁻¹] | fold improved affinity against the restricted form (cMet [2]) [fold] | fold reduced affinity against the Wildtype Fab (cMet [2]) [fold] |
| --- | --- | --- | --- | --- | --- | --- | --- | --- |
| B1 | 6.05 | 0.000188 | 31200 | 2.05 | 0.000338 | 165000 |  |  |
| B2 | 8.35 | 0.000203 | 24300 | 2.02 | 0.000356 | 176000 | > 30 |  |
| B3 | 369 | 0.000197 | 533 | 2.4 | 0.000414 | 172000 |  | > 20 |
| B4 | 7.05 | 0.000193 | 27400 |  |  |  |  |  |
